What was measured:
Assay in all cases: anti-TOX IP from EL4 nuclear extract, LC-MS/MS, MiST
Pml = Pml (UniProt Q60953)
Mars = Mars (UniProt Q68FL6)
Pno1 = Pno1 (UniProt Q9CPS7)
Hs2st1 = Hs2st1 (UniProt Q8R3H7)
Safb; Safb2; mKIAA0138 = target: Safb; Safb2; mKIAA0138
Eif5b = Eif5b (UniProt Q05D44)
Eif4h = Eif4h (UniProt Q9WUK2)
Afg3l1 = Afg3l1 (UniProt Q920A7)
Ppp1r10 = Ppp1r10 (UniProt Q80W00)
Aldh18a1 = Aldh18a1 (UniProt Q9Z110)
Cdk9 = Cdk9 (UniProt Q99J95)
Metap2 = Metap2 (UniProt O08663)
Kifc5b; Kifc1 = target: Kifc5b; Kifc1
Ing2 = Ing2 (UniProt Q9ESK4)
Chain of Ing2 (Q9ESK4 whole entry): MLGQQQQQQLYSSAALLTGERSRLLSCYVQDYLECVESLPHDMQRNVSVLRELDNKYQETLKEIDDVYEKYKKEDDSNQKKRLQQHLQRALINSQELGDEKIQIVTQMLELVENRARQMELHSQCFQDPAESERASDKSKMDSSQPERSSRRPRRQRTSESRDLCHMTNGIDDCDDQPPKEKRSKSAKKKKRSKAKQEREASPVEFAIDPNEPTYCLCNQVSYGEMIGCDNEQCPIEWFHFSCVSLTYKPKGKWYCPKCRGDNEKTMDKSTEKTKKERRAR

Cdc27 = Cdc27 (UniProt A2A6Q5)
Chain of Cdc27 (A2A6Q5 whole entry): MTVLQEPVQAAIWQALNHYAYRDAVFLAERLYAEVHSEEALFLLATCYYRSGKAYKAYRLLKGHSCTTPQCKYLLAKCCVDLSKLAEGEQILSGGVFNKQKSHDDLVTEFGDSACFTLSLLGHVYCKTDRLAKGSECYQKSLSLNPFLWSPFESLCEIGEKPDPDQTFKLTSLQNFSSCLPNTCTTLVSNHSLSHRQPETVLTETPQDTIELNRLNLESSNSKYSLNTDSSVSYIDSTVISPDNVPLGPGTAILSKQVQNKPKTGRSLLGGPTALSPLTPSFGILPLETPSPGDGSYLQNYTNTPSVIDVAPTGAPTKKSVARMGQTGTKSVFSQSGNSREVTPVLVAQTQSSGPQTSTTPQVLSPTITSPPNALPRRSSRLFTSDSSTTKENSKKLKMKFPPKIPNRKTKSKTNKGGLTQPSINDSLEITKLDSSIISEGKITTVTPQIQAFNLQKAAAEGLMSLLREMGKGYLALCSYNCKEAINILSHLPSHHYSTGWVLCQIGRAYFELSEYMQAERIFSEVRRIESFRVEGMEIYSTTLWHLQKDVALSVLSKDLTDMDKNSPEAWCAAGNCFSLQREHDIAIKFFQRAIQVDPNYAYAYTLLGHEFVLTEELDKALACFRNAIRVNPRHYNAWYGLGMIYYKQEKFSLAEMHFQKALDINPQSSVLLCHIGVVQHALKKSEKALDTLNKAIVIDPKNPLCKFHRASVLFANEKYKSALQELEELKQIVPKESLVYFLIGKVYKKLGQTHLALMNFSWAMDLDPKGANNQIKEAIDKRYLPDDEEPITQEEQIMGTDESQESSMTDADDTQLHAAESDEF

Wdhd1 = Wdhd1 (UniProt P59328)
Chain of Wdhd1 (P59328 whole entry): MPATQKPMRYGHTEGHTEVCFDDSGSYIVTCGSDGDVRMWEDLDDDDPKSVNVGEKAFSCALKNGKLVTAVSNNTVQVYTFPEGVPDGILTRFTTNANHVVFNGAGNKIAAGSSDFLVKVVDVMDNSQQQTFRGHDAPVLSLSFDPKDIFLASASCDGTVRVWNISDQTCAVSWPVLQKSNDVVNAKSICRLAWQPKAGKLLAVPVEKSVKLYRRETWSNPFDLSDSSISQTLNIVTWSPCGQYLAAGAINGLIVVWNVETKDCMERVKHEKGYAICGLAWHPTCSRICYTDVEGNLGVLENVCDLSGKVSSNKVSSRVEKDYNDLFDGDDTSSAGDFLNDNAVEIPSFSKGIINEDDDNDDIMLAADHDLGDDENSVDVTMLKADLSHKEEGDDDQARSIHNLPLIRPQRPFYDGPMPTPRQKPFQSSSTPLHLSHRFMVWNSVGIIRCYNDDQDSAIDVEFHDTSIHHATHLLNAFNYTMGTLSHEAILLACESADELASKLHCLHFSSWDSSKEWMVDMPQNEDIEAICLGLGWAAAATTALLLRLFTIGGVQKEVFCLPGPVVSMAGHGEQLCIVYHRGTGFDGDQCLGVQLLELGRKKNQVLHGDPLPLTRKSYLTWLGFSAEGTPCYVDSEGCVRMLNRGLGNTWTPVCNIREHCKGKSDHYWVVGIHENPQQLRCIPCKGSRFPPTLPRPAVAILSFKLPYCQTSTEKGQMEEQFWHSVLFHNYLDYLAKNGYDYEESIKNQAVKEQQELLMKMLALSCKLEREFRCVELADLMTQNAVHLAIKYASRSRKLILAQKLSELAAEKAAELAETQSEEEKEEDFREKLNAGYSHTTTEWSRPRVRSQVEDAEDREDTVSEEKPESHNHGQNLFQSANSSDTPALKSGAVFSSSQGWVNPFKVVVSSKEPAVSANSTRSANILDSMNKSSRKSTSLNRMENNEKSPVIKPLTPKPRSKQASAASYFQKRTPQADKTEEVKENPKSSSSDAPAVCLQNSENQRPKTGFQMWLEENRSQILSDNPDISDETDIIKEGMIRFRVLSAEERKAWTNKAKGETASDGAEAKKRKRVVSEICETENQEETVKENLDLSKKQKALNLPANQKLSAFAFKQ

Chain of Ppp1r10 (Q80W00 whole entry): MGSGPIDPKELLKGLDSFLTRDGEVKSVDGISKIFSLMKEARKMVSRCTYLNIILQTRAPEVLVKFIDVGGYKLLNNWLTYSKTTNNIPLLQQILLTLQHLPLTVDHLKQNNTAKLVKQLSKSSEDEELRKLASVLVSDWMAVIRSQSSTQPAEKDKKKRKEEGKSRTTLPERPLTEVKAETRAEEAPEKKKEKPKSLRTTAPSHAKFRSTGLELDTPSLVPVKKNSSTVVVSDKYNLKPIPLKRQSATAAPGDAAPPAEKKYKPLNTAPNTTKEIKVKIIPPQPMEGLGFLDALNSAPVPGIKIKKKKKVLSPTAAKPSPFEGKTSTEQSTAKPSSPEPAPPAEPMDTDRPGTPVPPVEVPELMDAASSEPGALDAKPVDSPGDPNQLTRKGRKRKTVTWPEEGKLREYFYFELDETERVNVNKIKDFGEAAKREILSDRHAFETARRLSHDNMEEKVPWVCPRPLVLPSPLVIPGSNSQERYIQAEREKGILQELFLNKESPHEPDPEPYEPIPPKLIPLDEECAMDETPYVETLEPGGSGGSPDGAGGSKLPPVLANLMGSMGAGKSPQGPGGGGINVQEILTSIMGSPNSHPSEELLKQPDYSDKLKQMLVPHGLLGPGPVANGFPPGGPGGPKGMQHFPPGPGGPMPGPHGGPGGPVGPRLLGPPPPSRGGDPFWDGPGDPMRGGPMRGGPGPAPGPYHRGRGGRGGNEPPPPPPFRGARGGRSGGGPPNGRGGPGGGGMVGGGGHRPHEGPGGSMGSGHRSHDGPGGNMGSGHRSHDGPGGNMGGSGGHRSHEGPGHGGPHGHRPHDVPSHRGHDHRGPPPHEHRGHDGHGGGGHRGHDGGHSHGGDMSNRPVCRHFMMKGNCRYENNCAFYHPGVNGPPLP
Chain of Metap2 (O08663 2-478 limits assumed): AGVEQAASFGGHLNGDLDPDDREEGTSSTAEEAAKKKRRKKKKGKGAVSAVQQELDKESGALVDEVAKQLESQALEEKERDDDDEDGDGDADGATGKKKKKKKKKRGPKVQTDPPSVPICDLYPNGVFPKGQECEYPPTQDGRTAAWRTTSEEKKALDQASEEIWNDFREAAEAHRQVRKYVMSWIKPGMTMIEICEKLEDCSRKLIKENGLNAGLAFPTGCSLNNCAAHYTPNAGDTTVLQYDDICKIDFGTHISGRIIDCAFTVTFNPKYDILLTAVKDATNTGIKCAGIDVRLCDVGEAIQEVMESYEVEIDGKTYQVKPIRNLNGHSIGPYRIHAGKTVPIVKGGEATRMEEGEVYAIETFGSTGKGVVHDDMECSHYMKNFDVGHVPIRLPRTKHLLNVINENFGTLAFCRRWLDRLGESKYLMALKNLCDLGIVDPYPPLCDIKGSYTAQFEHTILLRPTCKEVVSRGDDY
Chain of Cdk9 (Q99J95 whole entry): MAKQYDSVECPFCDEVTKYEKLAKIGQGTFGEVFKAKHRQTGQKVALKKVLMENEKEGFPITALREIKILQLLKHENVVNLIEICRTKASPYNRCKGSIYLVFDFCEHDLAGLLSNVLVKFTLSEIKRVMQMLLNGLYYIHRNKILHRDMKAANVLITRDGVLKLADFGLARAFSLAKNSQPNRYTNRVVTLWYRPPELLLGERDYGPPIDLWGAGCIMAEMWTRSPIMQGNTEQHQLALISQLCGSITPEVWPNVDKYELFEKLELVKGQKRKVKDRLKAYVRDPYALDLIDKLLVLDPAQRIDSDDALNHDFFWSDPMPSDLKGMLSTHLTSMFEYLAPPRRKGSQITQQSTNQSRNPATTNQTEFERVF
Chain of Pno1 (Q9CPS7 whole entry): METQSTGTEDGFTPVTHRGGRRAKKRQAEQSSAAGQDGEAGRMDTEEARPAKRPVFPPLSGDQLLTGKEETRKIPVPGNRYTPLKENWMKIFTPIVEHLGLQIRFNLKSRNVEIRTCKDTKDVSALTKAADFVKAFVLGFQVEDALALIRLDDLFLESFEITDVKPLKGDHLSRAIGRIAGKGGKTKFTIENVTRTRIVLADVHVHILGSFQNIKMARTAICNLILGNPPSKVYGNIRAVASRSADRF
Chain of TOX (Q66JW3 whole entry): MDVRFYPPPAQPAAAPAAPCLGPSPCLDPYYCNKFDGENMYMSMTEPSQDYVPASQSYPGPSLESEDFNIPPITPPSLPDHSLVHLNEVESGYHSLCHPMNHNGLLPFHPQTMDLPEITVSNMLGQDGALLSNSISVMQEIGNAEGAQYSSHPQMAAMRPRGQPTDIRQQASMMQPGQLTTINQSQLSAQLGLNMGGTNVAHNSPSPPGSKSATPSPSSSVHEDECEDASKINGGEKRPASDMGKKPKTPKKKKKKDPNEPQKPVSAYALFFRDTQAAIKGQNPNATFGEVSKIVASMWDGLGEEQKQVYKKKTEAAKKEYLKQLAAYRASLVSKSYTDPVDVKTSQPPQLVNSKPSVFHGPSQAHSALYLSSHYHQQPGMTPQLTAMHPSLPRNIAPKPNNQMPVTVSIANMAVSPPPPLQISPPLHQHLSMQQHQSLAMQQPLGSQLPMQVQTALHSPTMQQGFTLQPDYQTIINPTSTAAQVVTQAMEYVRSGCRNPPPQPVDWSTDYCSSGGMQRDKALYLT
Chain of Eif4h (Q9WUK2 2-248 limits assumed): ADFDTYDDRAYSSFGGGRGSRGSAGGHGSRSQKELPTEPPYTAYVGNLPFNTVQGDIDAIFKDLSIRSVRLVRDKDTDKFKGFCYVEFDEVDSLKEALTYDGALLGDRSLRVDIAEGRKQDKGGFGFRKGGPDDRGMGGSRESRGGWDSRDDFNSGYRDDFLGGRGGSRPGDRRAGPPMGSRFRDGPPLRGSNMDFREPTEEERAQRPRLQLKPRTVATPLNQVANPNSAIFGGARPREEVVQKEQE

In the case of TOX (from UniProt Q66JW3 1-526), the Abundance (Pml) was 8.97e-06, the MiST Score (Pml) was 0.858 and the Reproducibility (Pml) was 0.557. The Specificity (Pml) was 1, the Abundance (Mars) was 3.23e-07 and the MiST Score (Mars) was 0.877. For the same substance, the Reproducibility (Mars) was 0.619, the Specificity (Mars) was 1 and the Abundance (Pno1) was 0.000116. For the same substance, the MiST Score (Pno1) was 0.884, the Reproducibility (Pno1) was 0.988 and the Specificity (Pno1) was 0.845. It also gave an Abundance (Hs2st1) of 6.47e-06, a MiST Score (Hs2st1) of 0.879 and a Reproducibility (Hs2st1) of 0.628. It also gave a Specificity (Hs2st1) of 1, an Abundance (Safb; Safb2; mKIAA0138) of 3.18e-06 and a MiST Score (Safb; Safb2; mKIAA0138) of 0.873. The Reproducibility (Safb; Safb2; mKIAA0138) was 0.609, the Specificity (Safb; Safb2; mKIAA0138) was 1 and the Abundance (Eif5b) was 7.46e-06. For the same substance, the MiST Score (Eif5b) was 0.878, the Reproducibility (Eif5b) was 0.771 and the Specificity (Eif5b) was 0.933. For the same substance, the Abundance (Eif4h) was 1.07e-05, the MiST Score (Eif4h) was 0.869 and the Reproducibility (Eif4h) was 0.595. For the same substance, the Specificity (Eif4h) was 1, the Abundance (Afg3l1) was 2.15e-06 and the MiST Score (Afg3l1) was 0.874. The Reproducibility (Afg3l1) was 0.61, the Specificity (Afg3l1) was 1 and the Abundance (Ppp1r10) was 1.37e-05. For the same substance, the MiST Score (Ppp1r10) was 0.868, the Reproducibility (Ppp1r10) was 0.65 and the Specificity (Ppp1r10) was 0.974. For the same substance, the Abundance (Aldh18a1) was 9.69e-06, the MiST Score (Aldh18a1) was 0.887 and the Reproducibility (Aldh18a1) was 0.702. For the same substance, the Specificity (Aldh18a1) was 0.979, the Abundance (Cdk9) was 1.6e-05 and the MiST Score (Cdk9) was 0.865. It also gave a Reproducibility (Cdk9) of 0.581, a Specificity (Cdk9) of 1 and an Abundance (Metap2) of 1.54e-05. It also gave a MiST Score (Metap2) of 0.881, a Reproducibility (Metap2) of 0.927 and a Specificity (Metap2) of 0.868. It also gave an Abundance (Kifc5b; Kifc1) of 1.73e-06, a MiST Score (Kifc5b; Kifc1) of 0.88 and a Reproducibility (Kifc5b; Kifc1) of 0.63. It also gave a Specificity (Kifc5b; Kifc1) of 1, an Abundance (Ing2) of 2.44e-05 and a MiST Score (Ing2) of 0.878. The Reproducibility (Ing2) was 0.625, the Specificity (Ing2) was 1 and the Abundance (Cdc27) was 6.71e-06. It also gave a MiST Score (Cdc27) of 0.87, a Reproducibility (Cdc27) of 0.597 and a Specificity (Cdc27) of 1. For the same substance, the Abundance (Wdhd1) was 1.64e-06, the MiST Score (Wdhd1) was 0.877 and the Reproducibility (Wdhd1) was 0.619. For the same substance, the Specificity (Wdhd1) was 1.

Source: patent US20210071139A1
